Key:
[1] = target: GUS alone (beta-glucuronidase) (UniProt P05804)
[2] = target: GUS-YVAA-HBD fusion protein (beta-glucuronidase, Tyr-Val-Ala-Ala-Gly linker, hormone binding domain of rat glucocorticoid receptor) (UniProt P05804)
GUS-YVAA-HBD fusion protein (beta-glucuronidase, Tyr-Val-Ala-Ala-Gly linker, hormone binding domain of rat glucocorticoid receptor), sequence (P05804 other isoform, or with tags, fused parts or gaps): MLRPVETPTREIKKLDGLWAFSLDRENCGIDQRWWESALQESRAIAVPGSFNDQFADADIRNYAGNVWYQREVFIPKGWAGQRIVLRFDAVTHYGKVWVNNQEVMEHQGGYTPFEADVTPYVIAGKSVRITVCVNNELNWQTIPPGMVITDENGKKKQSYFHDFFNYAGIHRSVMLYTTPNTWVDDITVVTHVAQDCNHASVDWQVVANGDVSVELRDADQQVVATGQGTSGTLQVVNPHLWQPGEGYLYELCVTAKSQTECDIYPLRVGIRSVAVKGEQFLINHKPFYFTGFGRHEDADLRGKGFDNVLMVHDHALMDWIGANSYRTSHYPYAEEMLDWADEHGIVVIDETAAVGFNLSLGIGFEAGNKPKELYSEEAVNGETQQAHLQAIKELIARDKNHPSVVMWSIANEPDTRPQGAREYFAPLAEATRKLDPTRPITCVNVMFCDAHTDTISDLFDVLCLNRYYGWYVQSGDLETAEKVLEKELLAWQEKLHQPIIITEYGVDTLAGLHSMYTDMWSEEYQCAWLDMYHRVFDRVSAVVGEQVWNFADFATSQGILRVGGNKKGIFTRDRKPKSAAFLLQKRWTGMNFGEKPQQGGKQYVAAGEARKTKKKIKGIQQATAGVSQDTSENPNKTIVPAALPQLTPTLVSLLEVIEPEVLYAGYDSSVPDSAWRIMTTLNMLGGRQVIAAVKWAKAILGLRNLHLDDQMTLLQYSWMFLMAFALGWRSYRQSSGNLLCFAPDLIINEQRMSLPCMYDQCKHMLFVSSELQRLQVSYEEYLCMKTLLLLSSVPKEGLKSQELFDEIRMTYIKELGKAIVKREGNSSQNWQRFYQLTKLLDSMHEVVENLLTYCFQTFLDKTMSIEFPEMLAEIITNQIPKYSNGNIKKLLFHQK

GUS alone (beta-glucuronidase), sequence (P05804 whole entry, looked up, the tested form may be a part): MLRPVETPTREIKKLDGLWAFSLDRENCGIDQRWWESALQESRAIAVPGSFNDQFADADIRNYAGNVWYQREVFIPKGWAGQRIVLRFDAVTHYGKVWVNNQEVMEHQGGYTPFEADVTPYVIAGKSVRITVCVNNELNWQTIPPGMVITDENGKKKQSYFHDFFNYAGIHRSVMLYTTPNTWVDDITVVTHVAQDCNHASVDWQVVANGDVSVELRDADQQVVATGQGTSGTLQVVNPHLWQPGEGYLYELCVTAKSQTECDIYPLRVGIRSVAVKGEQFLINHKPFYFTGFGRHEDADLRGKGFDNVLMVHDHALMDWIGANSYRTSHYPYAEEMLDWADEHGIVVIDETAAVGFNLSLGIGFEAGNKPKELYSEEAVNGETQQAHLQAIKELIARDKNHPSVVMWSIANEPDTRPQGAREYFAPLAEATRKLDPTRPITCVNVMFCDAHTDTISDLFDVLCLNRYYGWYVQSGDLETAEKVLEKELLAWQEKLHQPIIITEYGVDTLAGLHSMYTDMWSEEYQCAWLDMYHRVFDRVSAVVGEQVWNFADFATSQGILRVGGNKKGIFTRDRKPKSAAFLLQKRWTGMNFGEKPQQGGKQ

purified caspase-1
proteolytic cleavage, SDS-PAGE autoradiogram of 35S-labelled protein [1]: no obvious proteolysis was detected by caspase-1 was observed with either the P1 linker mutant fusion or the GUS alone control
GUS activity of in vitro translated fusion after addition of caspase-1 [2]: no detectable increase in GUS activity is observed
proteolytic cleavage, SDS-PAGE autoradiogram of 35S-labelled protein [2]: no obvious proteolysis was detected by caspase-1 was observed with either the P1 linker mutant fusion or the GUS alone control

From US7015023
